The sequences below were run on Escherichia coli TOP10 (assay: shrunken log2 fold change of peptide-encoding DNA abundance (4.5 h post-induction vs induction); higher = less antimicrobial activity (less host growth inhibition)). Details: time post-induction: 4.5 h; library: site-saturation at positions 5, 18, 19, 20.
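Further: peptides expressed intracellularly from a pBAD plasmid library in pooled LB shake-flask culture, induced with 0.3% L-arabinose, DNA abundance read by NGS, three biological replicates, DESeq2 with apeglm shrinkage.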

Sequence	shrunken log2 fold change
RRIRMRPPRLPRPRPRPSQNPRP	0.407
RRIRLRPPRLPRPRPRPKSYPRP	-0.592
RRIRWRPPRLPRPRPRPTIDPRP	-0.0862
RRIRERPPRLPRPRPRPFLQPRP	-0.172
RRIRGRPPRLPRPRPRPQCAPRP	1.11
RRIRKRPPRLPRPRPRPLDDPRP	0.227
RRIRERPPRLPRPRPRPQQKPRP	-0.157
RRIRCRPPRLPRPRPRPVTHPRP	-0.29
RRIRARPPRLPRPRPRPYGLPRP	0.0316
RRIRPRPPRLPRPRPRPVCSPRP	-0.168
RRIRYRPPRLPRPRPRPNIAPRP	-0.64
RRIRFRPPRLPRPRPRPNNDPRP	-0.673
RRIRGRPPRLPRPRPRPGWEPRP	0.506
RRIRWRPPRLPRPRPRPHSDPRP	0.0062
RRIRDRPPRLPRPRPRPHCEPRP	-0.0477
RRIRTRPPRLPRPRPRPRLKPRP	0.0991
RRIRKRPPRLPRPRPRPSVDPRP	0.0884
RRIRWRPPRLPRPRPRPMAFPRP	-0.0177
RRIRFRPPRLPRPRPRPLENPRP	-0.0435
RRIRRRPPRLPRPRPRPQYDPRP	-0.224

Sequence	shrunken log2 fold change
RRIRDRPPRLPRPRPRPTDAPRP	-0.036
RRIRPRPPRLPRPRPRPVIMPRP	-0.634
RRIRPRPPRLPRPRPRPLLYPRP	-0.348
RRIRLRPPRLPRPRPRPWFYPRP	-0.785
RRIRFRPPRLPRPRPRPHVKPRP	-0.0318
RRIRHRPPRLPRPRPRPVLHPRP	-0.501
RRIRERPPRLPRPRPRPHPCPRP	-0.0414
RRIRKRPPRLPRPRPRPLCQPRP	0.206
RRIRIRPPRLPRPRPRPTPHPRP	0.788
RRIRFRPPRLPRPRPRPGVLPRP	0.0194
RRIRARPPRLPRPRPRPIIIPRP	-0.235
RRIRQRPPRLPRPRPRPKDNPRP	-0.23
RRIRHRPPRLPRPRPRPCIQPRP	-0.00018
RRIRVRPPRLPRPRPRPRHQPRP	-0.138
RRIRARPPRLPRPRPRPNDVPRP	0.128
RRIRVRPPRLPRPRPRPFEDPRP	-0.151
RRIRWRPPRLPRPRPRPYHNPRP	-0.296
RRIRHRPPRLPRPRPRPEQVPRP	-0.0321
RRIRKRPPRLPRPRPRPTWQPRP	0.58
RRIRNRPPRLPRPRPRPWPDPRP	0.646

Sequence	shrunken log2 fold change
RRIRKRPPRLPRPRPRPYVNPRP	-0.526
RRIRLRPPRLPRPRPRPWKQPRP	-0.0134
RRIRKRPPRLPRPRPRPYCAPRP	-0.254
RRIRQRPPRLPRPRPRPHYCPRP	-0.0397
RRIRARPPRLPRPRPRPEHMPRP	0.137
RRIRNRPPRLPRPRPRPRPGPRP	0.638
RRIRCRPPRLPRPRPRPTCFPRP	0.152
RRIRIRPPRLPRPRPRPYNRPRP	-0.01
RRIRNRPPRLPRPRPRPIVQPRP	-0.236
RRIRDRPPRLPRPRPRPYLKPRP	-0.443
RRIRWRPPRLPRPRPRPFKGPRP	-0.0135
RRIRKRPPRLPRPRPRPATPPRP	0.939
RRIRTRPPRLPRPRPRPNGQPRP	0.149
RRIRERPPRLPRPRPRPALNPRP	0.0441
RRIRGRPPRLPRPRPRPHDQPRP	0.62
RRIRCRPPRLPRPRPRPWCVPRP	-0.0995
RRIRTRPPRLPRPRPRPVWCPRP	-0.113
RRIRDRPPRLPRPRPRPDLAPRP	0.814
RRIRGRPPRLPRPRPRPTGHPRP	0.448
RRIRSRPPRLPRPRPRPHEPPRP	-0.154

Source: the supplement of paper PMC9112550, “Optimization of the antimicrobial peptide Bac7 by deep mutational scanning” (BMC Biology, 2022)
